The nature of experiment [1]: Propane hydroxylation (rate, total turnover, products). It counts as biochemical. As for the experimental part:
Cell lysates for high throughput screening were prepared as described previously (Peters et al., J. Am. Chem. Soc. 125:13442 (2003); incorporated by reference herein). High-throughput dimethyl ether (DME) screens were performed in 96 well plates as described previously. Improved mutants were selected based on an increased signal compared to 9-10A (for the saturation mutagenesis libraries) and 1-12G (for the recombination library). Reactions on octane and propane were analyzed by gas chromatography as described.
Rates of ethanol formation were measured over 30 min using gas chromatography (GC) coupled to an electron capture detector (ECD) and are reported as nmol ethanol/min/nmol enzyme. Errors are at most 10%. Total turnover number (ttn) was measured using GC after completion of the reaction and is reported as nmol product/nmol protein. Errors are at most 10%. Initial rates of propanol and octanol formation were measured over 1 min by GC and are reported as nmol product/min/nmol protein. Errors are at most 15%. The “ee” of 2-octanol (main product) was measured by GC; the favored enantiomer is listed in parenthesis. Wild-type P450 BM-3 primarily produces 3- and 4-octanol. The yields were not sufficient for the determination of ee for wt BM-3. Mutant 9-10A contains amino acid substitutions R47C, V78A K94I, P142S, T175I, A184V, F205C, S226R, H236Q, E252G, R255S, A290V, and L353V.
In Table 5 the product distribution is determined as ratio of a specific alcohol product to the total amount of all alcohol products (given in %). The product distribution for ketones was similar to alcohol product distribution. The numbers reported here are the (%) total of all ketones relative to total products (alcohols+ketones). The favored enantiomer is listed in parentheses.
For the data shown in Table 6 the initial NADPH consumption rates were measured over 15 seconds at 340 nm as nmol NADPH/min/nmol protein. Octane reactions contained 100 nM P450, 166 uM NADPH, and 4 mM octane in 1% ethanol and potassium phosphate buffer. […] Errors are at most 10%. Initial rates were measured by GC over 1 minute as nmol total products/min/nmol protein. Octane reactions contained 100 nM P450, 500 uM NADPH, and 4 mM octane in 1% ethanol and potassium phosphate buffer. Propane reactions contained 1 uM P450, 500 uM NADPH, and propane-saturated potassium phosphate buffer. Coupling was determined by ratio of product formation rate to NADPH consumption rate. Total turnover numbers were determined as nmol product/nmol enzyme. Octane reactions contained 10-25 nM P450, 500 uM NADPH, and 4 mM octane in 1% ethanol and potassium phosphate buffer. Propane reactions contained 10-25 nM protein, potassium phosphate buffer saturated with propane, and an NADPH regeneration system containing 100 uM NADP+, 2 U/mL isocitrate dehydrogenase, and 10 mM isocitrate.

The nature of experiment [2]: Methane to methanol conversion (alcohol oxidase/Purpald). To be noted: for Methane TTN: methane to methanol. It counts as biochemical. In outline:
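Purified P450 BM-3 variants (5 μM) in 0.1 M potassium phosphate pH 8.0 under methane were run with an NADPH regeneration system, 20 h at room temperature for total turnover. Methanol was oxidised by alcohol oxidase to formaldehyde, detected with Purpald at 550 nm against a methanol calibration curve.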

The source of these data is patent US12258605B2, “Alkane oxidation by modified hydroxylases” (The California Institute of Technology, priority 2005, dated 2025).

B1: 35-E11: P450 BM-3 variant, SEQ ID NO:7: 53-5H substitutions plus E464G and I710T (protein)
chain: TIKEMPQPKTFGELKNLPLLNTDKPVQALMKIADELGEIFKFEAPGCVTRYLSSQRLIKEACDESRFDKNLSQALKFFRDFSGDGLFTSWTHEINWKKAHNILLPSFSQQAMKGYHAMMVDIAVQLVQKWERLNADEHIEVSEDMTRLTLDTIGLCGFNYRFNSFYRDQPHPFIISMVRALDEVMNKLQRANPDDPAYDENKRQCQEDIKVMNDLVDKIIADRKARGEQSDDLLTQMLNGKDPETGEPLDDGNISYQIITFLIAGHETTSGLLSFALYFLVKNPHVLQKVVEEAARVLVDPVPSYKQVKQLKYVGMVLNEALRLWPTFPAFSLYAKEDTVLGGEYPLEKGDEVMVLIPQLHRDKTIWGDDVEEFRPERFENPSAIPQHAFKPFGNGQRACIGQQFALHEATLVLGMMLKHFDFEDHTNYELDIKETLTLKPEGFVVKAKSKKIPLGGIPSPSTGQSAKKVRKKAENAHNTPLLVLYGSNMGTAEGTARDLADIAMSKGFAPQVATLDSHAGNLPREGAVLIVTASYNGHPPDNAKQFVDWLDQASADEVKGVRYSVFGCGDKNWATTYQKVPAFIDETLAAKGAENIADRGEADASDDFEGTYEEWREHMWSDVAAYFNLDIENSEDNKSTLSLQFVDSAADMPLAKMHGAFSTNVVASKELQQPGSARSTRHLEIELPKEASYQEGDHLGVIPRNYEGTVNRVTARFGLDASQQIRLEAEEEKLAHLPLAKTVSVEELLQYVELQDPVTRTQLRAMAAKTVCPPHKVELEALLEKQAYKEQVLAKRLTMLELLEKYPACEMKFSEFIALLPSIRPRYYSISSSPRVDEKQASITVSVVSGEAWSGYGEYKGIASNYLAELQEGDTITCFISTPQSEFTLPKDPETPLIMVGPGTGVAPFRGFVQARKQLKEQGQSLGEAHLYFGCRSPHEDYLYQEELENAQSEGIITLHTAFSRMPNQPKTYVQHVMEQDGKKLIELLDQGAHFYICGDGSQMAPAVEATLMKSYADVHQVSEADARLWLQQLEEKGRYAKDVWAG
modifications: mutant P450 35-E11 protein sequence
With B1, the Propane ttn in experiment [1] (after completion of the reaction) is 6000 nmol product/nmol protein. Besides, the “Propane Rate” value in experiment [1] (initial rate of propanol formation over 1 min by GC) is on record as 210 nmol product/min/nmol protein. Besides, in experiment [2] (assay detects methanol as low as 10 μM), the “methanol production from methane” value is “producing methanol from methane”. Moreover, the “Methane TTN” value in experiment [2] was 8.

B2: 20-D3: P450 BM-3 variant, SEQ ID NO:11; 35-E11 plus H285R (protein)
chain: TIKEMPQPKTFGELKNLPLLNTDKPVQALMKIADELGEIFKFEAPGCVTRYLSSQRLIKEACDESRFDKNLSQALKFFRDFSGDGLFTSWTHEINWKKAHNILLPSFSQQAMKGYHAMMVDIAVQLVQKWERLNADEHIEVSEDMTRLTLDTIGLCGFNYRFNSFYRDQPHPFIISMVRALDEVMNKLQRANPDDPAYDENKRQCQEDIKVMNDLVDKIIADRKARGEQSDDLLTQMLNGKDPETGEPLDDGNISYQIITFLIAGHETTSGLLSFALYFLVKNPRVLQKVVEEAARVLVDPVPSYKQVKQLKYVGMVLNEALRLWPTFPAFSLYAKEDTVLGGEYPLEKGDEVMVLIPQLHRDKTIWGDDVEEFRPERFENPSAIPQHAFKPFGNGQRACIGQQFALHEATLVLGMMLKHFDFEDHTNYELDIKETLTLKPEGFVVKAKSKKIPLGGIPSPSTGQSAKKVRKKAENAHNTPLLVLYGSNMGTAEGTARDLADIAMSKGFAPQVATLDSHAGNLPREGAVLIVTASYNGHPPDNAKQFVDWLDQASADEVKGVRYSVFGCGDKNWATTYQKVPAFIDETLAAKGAENIADRGEADASDDFEGTYEEWREHMWSDVAAYFNLDIENSEDNKSTLSLQFVDSAADMPLAKMHGAFSTNVVASKELQQPGSARSTRHLEIELPKEASYQEGDHLGVIPRNYEGTVNRVTARFGLDASQQIRLEAEEEKLAHLPLAKTVSVEELLQYVELQDPVTRTQLRAMAAKTVCPPHKVELEALLEKQAYKEQVLAKRLTMLELLEKYPACEMKFSEFIALLPSIRPRYYSISSSPRVDEKQASITVSVVSGEAWSGYGEYKGIASNYLAELQEGDTITCFISTPQSEFTLPKDPETPLIMVGPGTGVAPFRGFVQARKQLKEQGQSLGEAHLYFGCRSPHEDYLYQEELENAQSEGIITLHTAFSRMPNQPKTYVQHVMEQDGKKLIELLDQGAHFYICGDGSQMAPAVEATLMKSYADVHQVSEADARLWLQQLEEKGRYAKDVWAG
modifications: mutant P450 20-D3 protein sequence
notes: 35-E11 plus H285R
On to B2, for which the “Methane TTN” value in experiment [2] was determined as 10.

B3: Wild-type BM-3: wild-type cytochrome P450 BM-3 from Bacillus megaterium, SEQ ID NO:1 (protein, listed as Bacillus megaterium)
chain: TIKEMPQPKTFGELKNLPLLNTDKPVQALMKIADELGEIFKFEAPGRVTRYLSSQRLIKEACDESRFDKNLSQALKFVRDFAGDGLFTSWTHEKNWKKAHNILLPSFSQQAMKGYHAMMVDIAVQLVQKWERLNADEHIEVPEDMTRLTLDTIGLCGFNYRFNSFYRDQPHPFITSMVRALDEAMNKLQRANPDDPAYDENKRQFQEDIKVMNDLVDKIIADRKASGEQSDDLLTHMLNGKDPETGEPLDDENIRYQIITFLIAGHETTSGLLSFALYFLVKNPHVLQKAAEEAARVLVDPVPSYKQVKQLKYVGMVLNEALRLWPTAPAFSLYAKEDTVLGGEYPLEKGDELMVLIPQLHRDKTIWGDDVEEFRPERFENPSAIPQHAFKPFGNGQRACIGQQFALHEATLVLGMMLKHFDFEDHTNYELDIKETLTLKPEGFVVKAKSKKIPLGGIPSPSTEQSAKKVRKKAENAHNTPLLVLYGSNMGTAEGTARDLADIAMSKGFAPQVATLDSHAGNLPREGAVLIVTASYNGHPPDNAKQFVDWLDQASADEVKGVRYSVFGCGDKNWATTYQKVPAFIDETLAAKGAENIADRGEADASDDFEGTYEEWREHMWSDVAAYFNLDIENSEDNKSTLSLQFVDSAADMPLAKMHGAFSTNVVASKELQQPGSARSTRHLEIELPKEASYQEGDHLGVIPRNYEGIVNRVTARFGLDASQQIRLEAEEEKLAHLPLAKTVSVEELLQYVELQDPVTRTQLRAMAAKTVCPPHKVELEALLEKQAYKEQVLAKRLTMLELLEKYPACEMKFSEFIALLPSIRPRYYSISSSPRVDEKQASITVSVVSGEAWSGYGEYKGIASNYLAELQEGDTITCFISTPQSEFTLPKDPETPLIMVGPGTGVAPFRGFVQARKQLKEQGQSLGEAHLYFGCRSPHEDYLYQEELENAQSEGIITLHTAFSRMPNQPKTYVQHVMEQDGKKLIELLDQGAHFYICGDGSQMAPAVEATLMKSYADVHQVSEADARLWLQQLEEKGRYAKDVWAG
In the case of B3, the figures for the activity on propane entry in experiment [1] (listed as P450BM3), in experiment [1] (listed as wild-type P450BM3) and in experiment [1] (listed as wildtype cytochrome P450 BM-3) were “no measurable activity”, “no detectable propane activity” and “inactive”, respectively.
